# Source: patent US20160243213A9
# What was measured:
# [1] = target: HPV-16 E7 wild type (E7WT) expressed by RMA-E7 transfectants (HPV-16) (UniProt P03129)
# [2] = target: HPV-16 E7 wild type (E7WT) expressed by RMA-E7 transfectants (HPV-16) (UniProt P03129); remark: listed apart in the source
Substance,"51Cr-release assay (after 1st in vitro restimulation), specific lysis [1] [%]","51Cr-release assay (after 1st in vitro restimulation), Specific Lysis (%) [2] [%]"
in vitro restimulated spleen cells of C57BL/6 mice inoculated with RPBLAs containing RX3-Gfp (cells without a defined receptor),12,
in vitro restimulated spleen cells of C57BL/6 mice inoculated with the DNA vaccine pTHamp-E7SH (cells without a defined receptor),26,
in vitro restimulated spleen cells of C57BL/6 mice inoculated with RPBLAs containing RX3-E7SH (cells without a defined receptor),,33
in vitro restimulated spleen cells of C57BL/6 mice inoculated with RPBLAs containing RX3-E7SH and incomplete Freund's adjuvant (cells without a defined receptor),,29
in vitro restimulated spleen cells of C57BL/6 mice inoculated with the empty plasmid pTHamp (cells without a defined receptor),,8
